This is an account of results in publication PMC8184503 (iScience, 2021).

This assay has as its target T1, His-tagged β-cat (ARM domain, aa 134-668) (UniProt P35222 134-668).
T1 sequence (looked up): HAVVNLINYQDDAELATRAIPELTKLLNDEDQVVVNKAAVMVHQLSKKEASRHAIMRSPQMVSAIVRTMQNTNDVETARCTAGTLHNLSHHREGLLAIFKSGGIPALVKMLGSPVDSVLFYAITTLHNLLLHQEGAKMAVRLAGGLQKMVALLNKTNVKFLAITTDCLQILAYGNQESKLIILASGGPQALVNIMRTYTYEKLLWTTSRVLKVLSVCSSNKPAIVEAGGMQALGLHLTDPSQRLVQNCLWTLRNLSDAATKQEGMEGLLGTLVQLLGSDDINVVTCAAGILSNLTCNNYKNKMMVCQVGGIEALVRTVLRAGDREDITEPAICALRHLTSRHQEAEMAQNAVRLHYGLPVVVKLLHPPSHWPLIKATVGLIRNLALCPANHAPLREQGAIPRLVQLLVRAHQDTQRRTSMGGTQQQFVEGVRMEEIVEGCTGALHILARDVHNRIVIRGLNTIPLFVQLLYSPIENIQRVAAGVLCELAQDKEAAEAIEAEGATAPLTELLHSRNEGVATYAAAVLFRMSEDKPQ
The assay is described as follows: SPR. Background: SPR reads the build-up and loss of mass on a sensor chip optically.

Primed or numbered codes have the meaning given here. Where no end group is shown, it is not given here. FITC′ = fluorescein isothiocyanate

What is called IC50 is the concentration that inhibits the measured activity by half. The low end stands for inhibition by little substance, the high end for a need for much substance. Molecule GGGDDLGANDELISFKDEGEQEEKSSENSSAERDLADVKSSLVNE-{FITC′} [C-terminal FITC-labeled TCF4 peptide (aa 7-51)] showed a half-maximal inhibitory concentration (IC50) of 29 nM.

B1: GST-tagged TCF4 N-terminal domain (aa 1-55) (domain or fragment, UniProt Q9NQB0 1-55, looked up)
chain: MPQLNGGGGDDLGANDELISFKDEGEQEEKSSENSSAERDLADVKSSLVNESETN
As for B1, the binding result was “binds”.
